Starred links: 1 amine or outer side, 2 acyl side, 3 side chain; linkers in the order of their positions; H or OH if unused. Positions of bridges follow the written chain, without caps; N, C: chain ends. Non-standard residues stand in square brackets, D forms with d. Primed or numbered codes have the meaning given here. MeKCOpipzaa″ = (2S)-6-{[4-(carboxymethyl)piperazine-1-carbonyl]amino}-2-(methylamino)hexanoic acid, CN([C@@H](CCCCNC(=O)N1CCN(CC(=O)[*:3])CC1)C(=O)[*:2])[*:1]; MeDapCOpipzaa = 3-(4-(carboxymethyl)piperazine-1-carboxamido)-2-(methylamino)propanoic acid, CN([C@@H](CNC(=O)N1CCN(CC(=O)[*:3])CC1)C(=O)[*:2])[*:1]; MeKCOpipzaa = N-alpha-methyl-N6-[4-(carboxymethyl)piperazine-1-carbonyl]-L-lysine, CN([C@@H](CCCCNC(=O)N1CCN(CC(=O)[*:3])CC1)C(=O)[*:2])[*:1]; W5N = 2-amino-3-(1H-pyrrolo[3,2-c]pyridin-3-yl)propanoic acid (5-aza-tryptophan), O=C([C@H](Cc1c[nH]c2ccncc12)N[*:1])[*:2]; MeHseMe″ = (2S)-4-methoxy-2-(methylamino)butanoic acid (N-methyl-O-methyl-L-homoserine), COCC[C@@H](C(=O)[*:2])N(C)[*:1]; F4aao = 4-(carboxymethoxy)-L-phenylalanine, O=C([C@H](Cc1ccc(OCC(=O)[*:3])cc1)N[*:1])[*:2]; F4aao(4) = 4-(carboxymethoxy)phenylalanine, O=C([C@H](Cc1ccc(OCC(=O)[*:3])cc1)N[*:1])[*:2]; MeHseMe = N-methyl-O-methyl-L-homoserine, COCC[C@@H](C(=O)[*:2])N(C)[*:1]; Thr(Me)″ = TMe = O-methyl-L-threonine, CO[C@H](C)[C@H](N[*:1])C(=O)[*:2]; TMe = O-methyl-L-threonine, CO[C@H](C)[C@H](N[*:1])C(=O)[*:2]; NMeAla(isoquinolin-7-yl) = CN[C@@H](Cc1ccc2ccncc2c1)C(=O)O; SulfoCy5(3) = sulfo-Cyanine5 hexanoyl dye on the lysine NZ; 3Pal(6-Ph) = N[C@@H](Cc1ccc(-c2ccccc2)nc1)C(=O)O; Phe(4-COOH) = N[C@@H](Cc1ccc(C(=O)O)cc1)C(=O)O; S3REt = (3R)-2-amino-3-hydroxypentanoic acid; NMe2Nal = CN[C@@H](Cc1ccc2ccccc2c1)C(=O)O; AEF = NCCOc1ccc(C[C@H](N)C(=O)O)cc1; NMeI = CC[C@H](C)[C@H](NC)C(=O)O; NMeQ = CN[C@@H](CCC(N)=O)C(=O)O; NMeK = CN[C@@H](CCCCN)C(=O)O; NMeC = CN[C@@H](CS)C(=O)O; NMeA = CN[C@@H](C)C(=O)O

The labels stand for the following.
B1: Macrocyclic peptide of Example B1 (SEQ ID No. 45) (peptide)
peptide: {CH2CO}-[NMeK][MeHseMe″]D[NMeQ][Phe(4-COOH)][TMe]IY[NMeAla(isoquinolin-7-yl)]G[3Pal(6-Ph)][NMeC]-NH2
modifications: thioether N-12
SMILES: CC[C@H](C)[C@@H]1NC(=O)[C@H]([C@@H](C)OC)NC(=O)[C@H](Cc2ccc(C(=O)O)cc2)NC(=O)[C@H](CCC(N)=O)N(C)C(=O)[C@H](CC(=O)O)NC(=O)[C@H](CCOC)N(C)C(=O)[C@H](CCCCN)N(C)C(=O)CSC[C@@H](C(N)=O)N(C)C(=O)[C@H](Cc2ccc(-c3ccccc3)nc2)NC(=O)CNC(=O)[C@H](Cc2ccc3ccncc3c2)N(C)C(=O)[C@H](Cc2ccc(O)cc2)NC1=O
notes: also called macrocyclic peptide 2b
B2: Macrocyclic peptide of Example 2-60 (SEQ ID No. 62) (peptide)
peptide: {CH2CO}-[NMeK][NMeI]D[NMeQ][Phe(4-COOH)][TMe]IY[NMeAla(isoquinolin-7-yl)]G[3Pal(6-Ph)][NMeC]-NH2
modifications: thioether N-12
SMILES: CC[C@H](C)[C@@H]1NC(=O)[C@H]([C@@H](C)OC)NC(=O)[C@H](Cc2ccc(C(=O)O)cc2)NC(=O)[C@H](CCC(N)=O)N(C)C(=O)[C@H](CC(=O)O)NC(=O)[C@H]([C@@H](C)CC)N(C)C(=O)[C@H](CCCCN)N(C)C(=O)CSC[C@@H](C(N)=O)N(C)C(=O)[C@H](Cc2ccc(-c3ccccc3)nc2)NC(=O)CNC(=O)[C@H](Cc2ccc3ccncc3c2)N(C)C(=O)[C@H](Cc2ccc(O)cc2)NC1=O
B3: Macrocyclic peptide of Example 10-2 (SEQ ID No. 41) (peptide)
peptide: {CH2CO}-[NMeK](dF)[NMeI]D[NMeQ][Phe(4-COOH)]II[F4aao(4)][NMeAla(isoquinolin-7-yl)]G[3Pal(6-Ph)][NMeC]-NH2
modifications: thioether N-12
SMILES: CC[C@H](C)[C@@H]1NC(=O)[C@H](Cc2ccc(C(=O)O)cc2)NC(=O)[C@H](CCC(N)=O)N(C)C(=O)[C@H](CC(=O)O)NC(=O)[C@H]([C@@H](C)CC)N(C)C(=O)[C@H](CCCCNC(=O)[C@H](N)Cc2ccccc2)N(C)C(=O)CSC[C@@H](C(N)=O)N(C)C(=O)[C@H](Cc2ccc(-c3ccccc3)nc2)NC(=O)CNC(=O)[C@H](Cc2ccc3ccncc3c2)N(C)C(=O)[C@H](Cc2ccc(OCC(=O)O)cc2)NC(=O)[C@H]([C@@H](C)CC)NC1=O
B4: Macrocyclic peptide of Example 10-1 (SEQ ID No. 34) (peptide)
peptide: {CH2CO}-[NMeK](His)[NMeI]D[NMeQ][Phe(4-COOH)]II[F4aao(4)][NMeAla(isoquinolin-7-yl)]G[3Pal(6-Ph)][NMeC]-NH2
modifications: thioether N-12
SMILES: CC[C@H](C)[C@@H]1NC(=O)[C@H](Cc2ccc(C(=O)O)cc2)NC(=O)[C@H](CCC(N)=O)N(C)C(=O)[C@H](CC(=O)O)NC(=O)[C@H]([C@@H](C)CC)N(C)C(=O)[C@H](CCCCNC(=O)[C@@H](N)Cc2c[nH]cn2)N(C)C(=O)CSC[C@@H](C(N)=O)N(C)C(=O)[C@H](Cc2ccc(-c3ccccc3)nc2)NC(=O)CNC(=O)[C@H](Cc2ccc3ccncc3c2)N(C)C(=O)[C@H](Cc2ccc(OCC(=O)O)cc2)NC(=O)[C@H]([C@@H](C)CC)NC1=O
B5: Macrocyclic peptide of Example 2-32 (SEQ ID No. 49) (peptide)
peptide: KKDKFTIFFGXC
modifications: not fully specified; MeK-MeKCOpipzaa-D-MeKCOpipzaa-F4COO-TMe-I-F4aaopipzaa-MeNal27N-G-3Py6Ph-MeC-NH2; thioether ring from N-terminal acetyl to MeC12
B6: Macrocyclic peptide of Example 2-39 (SEQ ID No. 67) (peptide)
peptide: ASDYIIYFGXC
modifications: not fully specified; MeA-S-(position 3 absent)-D-Y-I-I-Y-MeNal2-G-3Py6Ph-MeC-NH2; thioether ring from N-terminal acetyl to MeC
notes: 11 residues
B7: Macrocyclic peptide of Example 2-41 (SEQ ID No. 68) (peptide)
peptide: {CH2CO}-[NMeA]S[W5N]YIIY[NMe2Nal]G[3Pal(6-Ph)][NMeC]-NH2
modifications: thioether N-11
SMILES: CC[C@H](C)[C@@H]1NC(=O)[C@H](Cc2ccc(O)cc2)NC(=O)[C@H](Cc2c[nH]c3ccncc23)NC(=O)[C@H](CO)NC(=O)[C@H](C)N(C)C(=O)CSC[C@@H](C(N)=O)N(C)C(=O)[C@H](Cc2ccc(-c3ccccc3)nc2)NC(=O)CNC(=O)[C@H](Cc2ccc3ccccc3c2)N(C)C(=O)[C@H](Cc2ccc(O)cc2)NC(=O)[C@H]([C@@H](C)CC)NC1=O
notes: 11 residues

In this assay the target is T1, Human Glypican3-Fc (ACRO Biosystems, GP3-H5258) (human, UniProt P51654 25-559).
T1 construct: Bought fusion protein, captured in Methods B-2, B-3 and B-4; Catalogue number is printed only in Method B-2; not shown: Fc part of the bought fusion
As to the kind of experiment: SPR (Biacore T200), Method B-3: Glypican3-Fc captured on Protein A chip, peptide as analyte. The procedure: A Protein A sensor chip (Cytiva) was inserted into a Biacore T200 (Cytiva), priming was performed three times with a running buffer: HBS-P+, pH 7.4 (Cytiva), and equilibration was carried out at a flow rate of 30 μL/min. Glypican3-Fc was allowed to react for 60 seconds at a flow rate of 10 μL/min. After capturing human Glypican3-Fe, a peptide solution prepared to 10 mM in DMSO solution was diluted with a running buffer to a final concentration of 10 μM. […] Using the above samples, peptide kinetics for Glypican3 was obtained by SPR measurement. Kinetics evaluation of Glypican3 was performed by SPR measurements at a flow rate of 10 LL/min, setting the association time to 120 seconds and the disassociation time to 600 seconds.
The obtained data by Method B-1, Method B-2, Method B-3 and Method B-4 were analyzed by follow. Single Cycle Kinetics was used as the kinetics evaluation model, and curve fitting was performed using Biacore T200 Evaluation Software Version 3.0 (Cytiva).
A general note: Surface plasmon resonance follows binding to a sensor surface in real time, without labels.
Turning to B1, binding was characterised by a dissociation constant (Kd) of 0.2 nM.

As for {CH2CO}-[NMeK](SulfoCy5(3))[NMeI]D[NMeQ][Phe(4-COOH)]IIY[NMeAla(isoquinolin-7-yl)]G[3Pal(6-Ph)][NMeC]-NH2 (thioether N-12) [PLD-1], binding was put at a Kd of 0.32 nM.

In the case of B2, the Kd (usually a measure of binding affinity in units of concentration) is 0.23 nM.

As to B3, the Kd is 0.54 nM.

As for B4, the Kd is 0.51 nM.

Molecule {CH2CO}-[NMeA][MeHseMe]D[NMeQ][Phe(4-COOH)][Thr(Me)″]I[AEF][NMe2Nal]G[3Pal(6-Ph)][NMeC]-NH2 (thioether N-12) [Macrocyclic peptide of Example 2-28 (SEQ ID No. 44)] gave a Kd of 0.3 nM.

For B5, the Kd amounted to 1.8 nM.

As for {CH2CO}-[MeKCOpipzaa″][MeHseMe]D[NMeQ][Phe(4-COOH)][S3REt]IY[NMeAla(isoquinolin-7-yl)]G[3Pal(6-Ph)][NMeC]-NH2 (thioether N-12) [Macrocyclic peptide of Example 2-25 (SEQ ID No. 59)], binding was characterised by a dissociation constant (Kd) of 6.6 nM.

Molecule {CH2CO}-[NMeK][MeKCOpipzaa]D[MeDapCOpipzaa][Phe(4-COOH)][Thr(Me)″]I[F4aao][NMeAla(isoquinolin-7-yl)]G[3Pal(6-Ph)][NMeC]-NH2 (thioether N-12) [Macrocyclic peptide of Example 2-29 (SEQ ID No. 46)] registered a Kd of 1 nM.

Take B6: the equilibrium dissociation constant (Kd) is 25.3 nM.

Consider B7, for which the Kd is 58.5 nM.

The values above are taken from patent US20260241049A1, “Radiopharmaceutical Compositions Targeting Glypican-3 and Uses Thereof” (RayzeBio, Inc., priority 2023, published 2026).
